Source: the supplement of paper PMC9170038

Key:
MS2 coat protein [1] = assay: apparent KD of MS2 coat protein; designed switch direction (-1 OFF switch, 1 ON switch): 1; higher = weaker reporter binding; conditions: Eterna round: R98
Procedure: (§1)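 RNA-MaP: designed FMN/MS2 RNA switches (84 nt design region) are transcribed on-chip within common flanks and titrated with SNAP-549-labelled MS2 coat protein (about 1-3000 nM) in 100 mM Tris pH 7.5, 80 mM KCl, 4 mM MgCl2, without or with 200 uM FMN. Median apparent KD per design; activation ratio = KD,OFF / KD,ON.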

MS2 coat protein [2] = assay: apparent KD of MS2 coat protein; higher = weaker reporter binding; conditions: Eterna round: R101
Procedure: as §1

MS2 coat protein [3] = assay: apparent KD of MS2 coat protein, switch ON state; designed switch direction (-1 OFF switch, 1 ON switch): 1; higher = weaker reporter binding; conditions: FMN input: 0 or 200 uM; Eterna round: R93 (includes R88 designs)
How it was run: (§2)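 Normalised binding curves from single clusters were fitted, and the median fit for each design is given as apparent KD. The clusters held designed RNA switches transcribed on-chip from Illumina sequencing clusters. These were titrated with SNAP-549-labelled MS2 coat protein (twofold steps from 0.7 or 1.5 nM to 3 µM, 0.8–1.5 h to 10–20 min per step) in 100 mM Tris-HCl pH 7.5, 80 mM KCl, 4 mM MgCl2, without or with constant ligand.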

MS2 coat protein [4] = assay: apparent KD of MS2 coat protein, switch OFF state (with FMN for OFF switches, without FMN for ON switches); designed switch direction (-1 OFF switch, 1 ON switch): 1; higher = weaker reporter binding; conditions: FMN input: 0 or 200 uM; Eterna round: R93 (includes R88 designs)
How it was run: as §2

Sequence | apparent KD of MS2 coat protein (MS2 coat protein [2]; input ligand: FMN 200 uM) | apparent KD of MS2 coat protein (MS2 coat protein [2]; input ligand: none) | also measured
UCUCUGGAAUACAUGAGGAUCACCCAUGUGUAAACAUUUACACAGGAUAUCGACGUCUGAGACGACGAGAAGGGUGGGCAGCAA [Rexele] | – | – | apparent KD of MS2 coat protein (MS2 coat protein [1]; input ligand: FMN 200 uM): 1 µM; apparent KD of MS2 coat protein (MS2 coat protein [1]; input ligand: none): 0.252 µM
ACAUACAUUCGAGGAUAUCGGUGAUUAAUUCUACGAGAAGGCGAUUUAAGAUAUAAUAUUUUAGACAUGAGGAUCACCCAUGUA [JR_SSNG1_Sub036] | – | – | apparent KD of MS2 coat protein (MS2 coat protein [1]; input ligand: FMN 200 uM): 0.0229 µM; apparent KD of MS2 coat protein (MS2 coat protein [1]; input ligand: none): 0.0283 µM
GGAGAUACAUGAGGAUCACCCAUGUAGGAUAUAUAGUAUAUAUAUAUUGAAAGGUAUAUAUAUAUAUAGAAGGGCGUGCACACC [#LOL-18] (puzzle (switch architecture): Small Loop Exclusion NG 3) | 0.00673 µM | 0.00907 µM | –
GACUGCAGGAUAACAACCUGCAGUCACUUCUGAGGAUCACCCAGAAGGGCUGAGGUAAUACCUCAGCAGGAUAUGGAGUGUAAA [#SharedSequence IExNG# - 8] (puzzle (switch architecture): Inverted Exclusion NG 3) | 0.0701 µM | 0.0219 µM | –
ACACGUCGUGAGAAGGAGGAUCACCCUUUCGAAAGAAAGAGCCACCGUGAAAACGGUGGCAAAUUCUAGGAUAUCACGACGUGA [#SharedSequence - IExNG2: 2] (puzzle (switch architecture): Inverted Exclusion NG 2) | 0.363 µM | 0.23 µM | –
CCCGGUGACUAGAAGGCGCCACAUGAGGAUCACCCAUGUAUCAAAGACCGGUGAUUGCCGACGGGCGAGGAUAUAGGUGCGACG [EternaBot1154] (puzzle (switch architecture): Inverted Exclusion NG 2) | – | 0.00819 µM | –
AAAUAACUUGAAGGAUAUCAGGGUGCACCUCAGUAAAACUGAGGUGCACCCUGAGAAGGUCGAGGAUCACCCGACCUAAAUAAA [#SharedSequence SLExNG1: 6-2] (puzzle (switch architecture): Small Loop Exclusion NG 1) | 0.00727 µM | 0.00576 µM | –
GGUGCACGCACAGGAUAUCCGGCGAAGCUCGUCGGAGAAGGGUGACAUGAGGAUCACCCAUGUACGUGCAGCCAAGUUUGAGAG [Laaar] (puzzle (switch architecture): Same State NG 1) | 0.0476 µM | 0.0268 µM | –
CGGGAUAUGAAGGGCGAAAGCCCACAUGAGGAUCACCCAUGUAGAAGGCGGGCCGCAACGCGGCCCGAGGAUAUACAAUAUCCA [#my 7th design] (puzzle (switch architecture): Inverted Exclusion NG 3) | 0.0131 µM | 0.00905 µM | –
UAGAUAUGGUGAGGAUAUGCAGAGGAUCACCCUGUAGAAGGCAUCAGGGUAGAAGGUGCAAGGAUCACCUGUAAGGAUAUAUCC [pwkr2 ssNG1 DX.29] | – | – | apparent KD of MS2 coat protein (MS2 coat protein [1]; input ligand: FMN 200 uM): 0.917 µM; apparent KD of MS2 coat protein (MS2 coat protein [1]; input ligand: none): 1.05 µM
CCGAUUAGCACAGGAUAUGGGAGUUCGUAGCUCCCAGAAGGGUGAGCCAAUACAUGAGGAUCACCCAUGUGCGGUAGGUCAGGA [Energe] | – | – | apparent KD of MS2 coat protein (MS2 coat protein [1]; input ligand: FMN 200 uM): 0.056 µM; apparent KD of MS2 coat protein (MS2 coat protein [1]; input ligand: none): 0.0571 µM
UUGGACGUCGUAGGAUAUGUAGGAUAUUCCUACAUGAGGAUCACCCAUGUUGACAUGGAAGAAGGACAGAAGGACGAUGUCCAU (puzzle (switch architecture): Same State NG 2) | 0.00456 µM | 0.217 µM | –
GGGUCGCUUGGAGGAUAUCCAACUAUCCUAGUUGGAGAAGGCCAAGCUACAGAGCUAAGCUUGGAAGUCACUUCGGACCCACAC [pwkr ssNG1 F9.4.5] | – | – | apparent KD of MS2 coat protein (MS2 coat protein [1]; input ligand: FMN 200 uM): 0.047 µM; apparent KD of MS2 coat protein (MS2 coat protein [1]; input ligand: none): 0.0156 µM
UAAAUAGAUCCUAGAGGAUCACCCUAGGAUAUCACCGUCGAGGUGCCAUAAUGGCACCUCGACGGUGAGAAGGAGGAAAAUAAA [#SharedSequence - SLExNG3: 5] (puzzle (switch architecture): Small Loop Exclusion NG 3) | 0.0218 µM | 0.0115 µM | –
UAAUAUAUAUAGAAGGACAUGAGGAUCACCCAUGUCGCCGGGCCCGGGAAACCGGGCCCGGCCAUGUAGGAUAUAUAUAUAUUA [#This is a good prank 10] (puzzle (switch architecture): Inverted Exclusion NG 2) | 0.00517 µM | 0.0049 µM | –
GGUCGACUUCAAGGAUAUGGACUGCAAAGCAGUCCAGAAGGUGAGGAUCACCCAUCUACGGUCAGGAAACUGACCGAUCGACCA [#SharedSequence - ExNG1-8] (puzzle (switch architecture): Exclusion NG 1) | 0.117 µM | 0.0862 µM | –
GUCAGCUCGUGAGGAUAUACAACACUGCUUCGGCAGUGUAUUAAGAUCACAUGAGGAUCACCCAUGUAGAAGGCACGAGCUGAU (puzzle (switch architecture): Exclusion NG 2) | 0.24 µM | 0.0139 µM | –

Sequence | apparent KD of MS2 coat protein (MS2 coat protein [2]; input ligand: FMN 200 uM) | apparent KD of MS2 coat protein (MS2 coat protein [2]; input ligand: none) | also measured
GGAGAUACAUGAGGAUCACCCAUGUAGGAUAUCGGGCCCGGGCCCGGCGAAAGCCGGGCCCGGGCCGAGAAGGGCGUACACACC [#LOL-2] (puzzle (switch architecture): Small Loop Exclusion NG 3) | 0.00579 µM | 0.0073 µM | –
GUCACGGUUAAUUCCGUGACGCGCAAUCCUUGAGGAUCACCCAAGGAUAUCGACGUCAAUGACGUCGAGAAGGUGGUUGAGCGC [#SharedSequence2] (puzzle (switch architecture): Exclusion NG 3) | 0.0235 µM | 0.0136 µM | –
UUACUCAUGUAAGGAUAUGCAGCCGAAACGGCUGCAGAAGGUACUAUAAUACAUGAGGAUCACCCAUGUAAAAUAUAUAAAGUU (puzzle (switch architecture): Same State NG 1) | 0.0183 µM | 0.0293 µM | –
GGAUAGGACAGAGGAUAUACGUGCUAGAGAUACUAGCAAAAUUUCCUCACAUGAGGAUCACCCAUGUAGAAGGCUGUCCUAUCG (puzzle (switch architecture): Exclusion NG 2) | 0.415 µM | 0.0157 µM | –
AGACCUGCUCAGAAGGAGAGUGCGAGGCUGGAAACAGCCUCGAACUAGAAACCUAGAGGAUCACCCUAGGAUAUGAGCAGGUCA [#SharedSequence - IExNG2: 10] (puzzle (switch architecture): Inverted Exclusion NG 2) | 0.00558 µM | 0.00551 µM | –
AGGAGAAAUGUAGGAUAUGGGCGGGCGGACGGGCAAAGCGCGUCCGCCCGCCCAGAAGGACAUGAGGAUCACCCAUGUUUCCCU [Wow, my 5th design!] (puzzle (switch architecture): Small Loop Exclusion NG 1) | 0.013 µM | 0.0122 µM | –
CGUAGUCCGUAGAAGGGUGACAUGAGGAUCACCCAUGUGCGAGCGGAGGGAGUCAGCGGCUCGCCACAGGAUAUACGGAGCACG [Eniszabe] (puzzle (switch architecture): Inverted Same State NG 2) | 0.0288 µM | 0.137 µM | –
GCAGGGCUACACUAGGAUAUGGGUGUCUAAACAUGAGGAUCACCCAUGUGAUGGCAAAACAAAGCUCAGAAGGAGUCGUAGCCCA [Bebirare] | – | – | apparent KD of MS2 coat protein (MS2 coat protein [3]): 0.014 µM; apparent KD of MS2 coat protein (MS2 coat protein [4]): 0.0243 µM
AACAAUCUAUCUGAGGAUAUCAUGACAAAGACAUGAGGAUCACCCAUGUGCAGGAAAACUGCUUAUGAGAAGGCAGAUAGAUUGA [SS2: 1113] | – | – | apparent KD of MS2 coat protein (MS2 coat protein [3]): 0.011 µM; apparent KD of MS2 coat protein (MS2 coat protein [4]): 0.0146 µM
AGCUAACAUGAGGAUCACCCAUGUCCGCUAAACCAAGGAUAUGGGACGAAUAAAAUCGGACCAGAAGGUGGCCGAC [Qureaed] | – | – | apparent KD of MS2 coat protein (MS2 coat protein [3]): 0.218 µM; apparent KD of MS2 coat protein (MS2 coat protein [4]): 0.222 µM
AAAUAAUCCUUAGGAUAUGACUCCGAAACGGAGUCAGAAGGGAGGAUCACCCUCUUCAGCUCAGCGUCGAAAGACGCUGAGCAA [#SharedSequence ExNG1 - 22] (puzzle (switch architecture): Exclusion NG 1) | 0.2 µM | 0.0728 µM | –
AAAAAAAAUGUGUAGGAUAUCAGUAAAAAUACAUGAGGAUCACCCAUGUUCAAAAAAAAAAAAACUGAGAAGGACGUGGAUGGUCC [Design 3] | – | – | apparent KD of MS2 coat protein (MS2 coat protein [3]): 0.0123 µM; apparent KD of MS2 coat protein (MS2 coat protein [4]): 0.0111 µM
AACAAUCUAUCUGAGGAUAUGUGUCAAAAGACAUGAGGAUCACCCAUGUAAAAACAUGAAAAAACACAGAAGGCAGAUAGAUUGA [SS2: 1148] | – | – | apparent KD of MS2 coat protein (MS2 coat protein [3]): 0.0418 µM; apparent KD of MS2 coat protein (MS2 coat protein [4]): 0.0593 µM
AAAUAACUUGAAGGAUAUCAGGGUGCACCUCAGUAAAACUGAGGUGCACCCUGAGAAGGUCGAGGAUCACCCGACCUAGUGAAA [#SharedSequence SLExNG1: 7-2] (puzzle (switch architecture): Small Loop Exclusion NG 1) | 0.00719 µM | 0.0068 µM | –
GAAAAACAUGAGGAUCACCCAUGUUAAUAUAUGGGAGGAUAUACAAAGACGAAAGUCAAAGUAGAAGGCCUAAAAG | – | – | apparent KD of MS2 coat protein (MS2 coat protein [3]): 0.0197 µM; apparent KD of MS2 coat protein (MS2 coat protein [4]): 0.0433 µM
GGGAGGAAGAGAGAGGAUAUCCAAAGGAAAACAUGAGGAUCACCCAUGUAAAAGGUAGGAAAUUGGGAGAAGGCUCAAAAGAGGG [salish99-ss2-038] | – | – | apparent KD of MS2 coat protein (MS2 coat protein [3]): 0.0298 µM; apparent KD of MS2 coat protein (MS2 coat protein [4]): 0.0406 µM
